Experimental data: paper PMC2196413 (The Journal of Cell Biology, 2001)

B1: MBP fusion protein with NH2-terminal half of ZO-1 (domain or fragment)
chain: MSARAAAAKSTAMEETAIWEQHTVTLHRAPGFGFGIAISGGRDNPHFQSGETSIVISDVLKGGPAEGQLQENDRVAMVNGVSMDNVEHAFAVQQLRKSGKNAKITIRRKKKVQIPVSHPDPEPVSDNEDDSYDEEVHDPRAGRGALANRRSEKSWARDRSASRERSLSPRSDRRSVASSQPAKPTKVTLVKSRKNEEYGLRLASHIFVKEISQDSLAARDGNIQEGDVVLKINGTVTENMSLTDAKTLIERSKGKLKMVVQRDERATLLNVPDLSDSIHSANASERDDISEIQSLASDHSGRSHDRPPRRSQSRSPDQRSEPSDHSTQSPQQPSNGSLRSREEERMSKPGAISTPVKHVDDHPPKAVEEVTVEKNEKQTPTLPEPKPVYAQVGQPDVDLPVSPSDGALPNSAHEDGILRPSMKLVKFRKGDSVGLRLAGGNDVGIFVAGVLEDSPAAKEGLEEGDQILRVNNVDFTNIIREEAVLFLLDLPKGEEVTILAQKKKDVYRRIVESDVGDSFYIRTHFEYEKESPYGLSFNKGEVFRVVDTLYNGKLGSWLAIRIGKNHKEVERGIIPNKNRAEQLASVQYTLPKTAGGDRADFWRFRGLRSSKRNLRKSREDLSAQPVQTKFPAYERVVLREAGFLRPVTIFGPIADVAREKLAREEPDIYQIAKSEPRDAGTDHRSSGIIRLHTIKQIIDQDKHALLDVTPNAVDRLNYAQWYPIVVFLNPDSKQGVKTMRMRLCPESRKSARKLYERSHKLRKNNHHLFTTTINLNSMNDGWYGALKEAIQQQQNQLVWVSEGKADGATSDDLDLHDDRLSYLSAPGSEYSMYSTDSRHTSDYEDTDTEGGAYTDQELDETL
B2: MBP-PDZ1/2/3–PAR-3 (domain or fragment)
chain: MVKLVQVPNDGGPLGIHVVPFSARGGRTLGLLVKRLEKGGKAEQENLFHENDCIVRINDGDLRNRRFEQAQHMFRQAMRARVIWFHVVPAANKEQYEQLSQREMNNYSPGRFSPDSHCVANRSVANNAPQALPRAPRLSQPPEQLDAHPRLPHSAHASTKPPTAPALAPPNVLSTSVGSVYNTKRVGKRLNIQLKKGTEGLGFSITSRDVTIGGSAPIYVKNILPRGAAIQDGRLKAGDRLIEVNGVDLAGKSQEEVVSLLRSTKMEGTVSLLVFRQEEAFHPREMNAEPSQMQSPKETKAEDEDIVLTPDGTREFLTFEVPLNDSGSAGLGVSVKGNRSKENHADLGIFVKSIINGGAASKDGRLRVNDQLIAVNGESLLGKANQEAMETLRRSMSTEGNKRGMIQ

Biological target: T1, GST fusion protein with the cytoplasmic domain of JAM (human, UniProt Q9Y624 260-299)
T1 chain (looked up): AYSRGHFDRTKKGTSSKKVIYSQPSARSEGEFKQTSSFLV
Test: pull-down

Row | Binder | Kd [nM]
1 | B1 | 110
2 | B2 | 75
